Molecular target: T1, EphA2 (human, UniProt P29317 25-534, limits assumed)
T1 construct: also called biotinylated EphA2; soluble EphA2 antigen
Assay: BIAcore, ovalbumin immobilised, antigens injected one after the other
Experimental: FIG. 36. […] The upper curve represents the binding activity of three distinct epitope binding domains present on multispecific epitope binding protein “P1” represented in FIG. […]. Soluble EB, EA, and EphA2 antigens were added to immobilized P1 and the relative binding was measured. The three distinct inflections referenced by the arrows corresponding to the three antigens indicates binding to the immobilized P1. Ovalbumin (bottom curve) was used as a negative control.
Methods: Triple-specific binding ability of P1 (FIG. 3D) was assessed by BIAcore by injecting the three antigens EB, EA and EphA2 sequentially over a P1-coated chip. When the P1 epitope had been saturated with the first antigen (EB), the second antigen (EA) was injected, followed by the injection of the third antigen (EphA2). Ovalbumin was used as a negative binding control.

T1 sequence (P29317 25-534 limits assumed): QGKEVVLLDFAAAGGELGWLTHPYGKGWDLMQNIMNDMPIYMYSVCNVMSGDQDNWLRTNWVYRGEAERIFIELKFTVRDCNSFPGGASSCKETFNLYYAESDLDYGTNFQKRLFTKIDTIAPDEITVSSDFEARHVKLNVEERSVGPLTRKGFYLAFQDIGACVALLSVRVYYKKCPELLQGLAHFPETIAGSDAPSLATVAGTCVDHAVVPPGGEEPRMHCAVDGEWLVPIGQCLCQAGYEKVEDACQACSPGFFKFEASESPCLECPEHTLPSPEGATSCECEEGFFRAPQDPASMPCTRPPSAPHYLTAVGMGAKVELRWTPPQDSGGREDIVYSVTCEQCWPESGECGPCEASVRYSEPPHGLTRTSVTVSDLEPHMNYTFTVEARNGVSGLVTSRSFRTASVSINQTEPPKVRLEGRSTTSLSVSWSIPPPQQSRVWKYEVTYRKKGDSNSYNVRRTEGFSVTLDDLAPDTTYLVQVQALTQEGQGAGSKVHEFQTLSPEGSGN

B1: Ovalbumin (other, UniProt P01012 2-386, looked up)
chain: GSIGAASMEFCFDVFKELKVHHANENIFYCPIAIMSALAMVYLGAKDSTRTQINKVVRFDKLPGFGDSIEAQCGTSVNVHSSLRDILNQITKPNDVYSFSLASRLYAEERYPILPEYLQCVKELYRGGLEPINFQTAADQARELINSWVESQTNGIIRNVLQPSSVDSQTAMVLVNAIVFKGLWEKAFKDEDTQAMPFRVTEQESKPVQMMYQIGLFRVASMASEKMKILELPFASGTMSMLVLLPDEVSGLEQLESIINFEKLTEWTSSNVMEERKIKVYLPRMKMEEKYNLTSVLMAMGITDVFSSSANLSGISSAESLKISQAVHAAHAEINEAGREVVGSAEAGVDAASVSEEFRADHPFLFCIKHIATNAVLFFGRCVSP
notes: also called immobilized ovalbumin
binding result: no binding

— patent US20100233173A1 (AstraZeneca / MedImmune, published 2010)
